Source: US20150258192A1, “COMPOSITIONS AND METHODS FOR PREVENTING OR TREATING CHRONIC LUNG ALLOGRAFT DYSFUNCTION (CLAD) AND IDIOPATHIC PULMONARY FIBROSIS (IPF)” (priority 2014, published 2015)
No end group written: not given here.

Molecular target: T1, Rse(h) (Homo sapiens, UniProt Q06418)
T1 sequence (Q06418 41-890): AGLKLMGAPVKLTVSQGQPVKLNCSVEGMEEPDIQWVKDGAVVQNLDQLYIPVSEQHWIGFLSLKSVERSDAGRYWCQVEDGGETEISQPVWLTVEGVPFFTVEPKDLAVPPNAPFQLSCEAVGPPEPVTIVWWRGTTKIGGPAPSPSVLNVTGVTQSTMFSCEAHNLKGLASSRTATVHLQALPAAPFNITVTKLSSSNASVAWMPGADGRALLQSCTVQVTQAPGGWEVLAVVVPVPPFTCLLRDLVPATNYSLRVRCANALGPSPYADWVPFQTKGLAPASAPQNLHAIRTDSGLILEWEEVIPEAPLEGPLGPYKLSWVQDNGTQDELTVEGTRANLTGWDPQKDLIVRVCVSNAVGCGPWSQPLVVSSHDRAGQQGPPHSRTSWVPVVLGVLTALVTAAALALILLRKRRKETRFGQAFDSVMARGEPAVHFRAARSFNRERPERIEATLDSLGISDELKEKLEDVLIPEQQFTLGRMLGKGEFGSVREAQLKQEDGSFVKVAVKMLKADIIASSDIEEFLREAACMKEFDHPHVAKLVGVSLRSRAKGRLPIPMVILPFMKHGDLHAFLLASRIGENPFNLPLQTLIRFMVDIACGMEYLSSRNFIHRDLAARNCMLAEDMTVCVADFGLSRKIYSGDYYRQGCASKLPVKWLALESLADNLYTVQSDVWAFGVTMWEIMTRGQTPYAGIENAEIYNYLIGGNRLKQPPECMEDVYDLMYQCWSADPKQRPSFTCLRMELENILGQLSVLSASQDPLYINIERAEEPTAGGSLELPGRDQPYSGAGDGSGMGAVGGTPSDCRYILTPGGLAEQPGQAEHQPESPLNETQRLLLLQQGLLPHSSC
Test: Kinase Profiling Assay
Format: biochemical
Conditions: peptide 100 μM
Protocol: (§1) Every kinase activity measurement was conducted in duplicate.
(§2) Specifically, in these assays, a positively charged substrate is phosphorylated with a radiolabeled phosphate group from an ATP if the kinase is not inhibited by an inhibitor peptide. The positively charged substrate then is attracted to a negatively charged filter membrane, quantified with a scintillation counter, and compared to a 100% activity control.
(§3) In addition to determining the IC50 of the compound, the specificity of MK2 inhibitory peptides was assessed by examining activities of all 266 human kinases available for testing in the Millipore kinase profiling service (Table 1).

Compared with FAKLAARLYRKALARQLGVAA [MMI-0300], “HRRIKAWLKKIKALARQLGVAA (Mammal) [MMI-0500]” is lower in “% activity” value: 88% for the first, 63% for the second.

Compared with KAFAKLAARLYRKALARQLGVAA [MMI-0400], “YARAAARQARAKALNRQLGVA (Mammal) [MMI-0200]” is lower in “% activity” value: 89% for the first, 88% for the second.

Molecular target: Fyn(h) (Homo sapiens, UniProt P06241)
Sequence (P06241 whole entry): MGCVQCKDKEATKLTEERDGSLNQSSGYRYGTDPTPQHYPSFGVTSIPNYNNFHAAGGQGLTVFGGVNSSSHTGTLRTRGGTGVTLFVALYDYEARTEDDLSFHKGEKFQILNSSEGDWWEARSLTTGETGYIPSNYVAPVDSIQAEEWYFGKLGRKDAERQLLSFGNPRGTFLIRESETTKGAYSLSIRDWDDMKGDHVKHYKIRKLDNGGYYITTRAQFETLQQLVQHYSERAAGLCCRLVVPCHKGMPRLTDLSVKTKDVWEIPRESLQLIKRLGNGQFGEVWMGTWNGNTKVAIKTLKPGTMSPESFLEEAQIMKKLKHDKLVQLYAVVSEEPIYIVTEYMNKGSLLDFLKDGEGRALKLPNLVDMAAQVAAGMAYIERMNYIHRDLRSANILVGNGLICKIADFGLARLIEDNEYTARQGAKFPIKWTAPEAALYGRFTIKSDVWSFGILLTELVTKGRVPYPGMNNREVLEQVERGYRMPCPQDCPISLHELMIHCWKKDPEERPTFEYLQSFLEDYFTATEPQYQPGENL
Test: Kinase Profiling Assay
Format: biochemical
Conditions: peptide 100 μM
Protocol: as §1, §2, §3

Going from FAKLAARLYRKALARQLGVAA [MMI-0300] to “HRRIKAWLKKIKALARQLGVAA (Mammal) [MMI-0500]”, the “% activity” value rises from 74% to 83%.

Compared with KAFAKLAARLYRKALARQLGVAA [MMI-0400], “YARAAARQARAKALNRQLGVA (Mammal) [MMI-0200]” is higher in “% activity” value: 54% for the first, 75% for the second.

Molecular target: EphA4(h) (Homo sapiens, UniProt P54764)
Sequence (P54764 20-986): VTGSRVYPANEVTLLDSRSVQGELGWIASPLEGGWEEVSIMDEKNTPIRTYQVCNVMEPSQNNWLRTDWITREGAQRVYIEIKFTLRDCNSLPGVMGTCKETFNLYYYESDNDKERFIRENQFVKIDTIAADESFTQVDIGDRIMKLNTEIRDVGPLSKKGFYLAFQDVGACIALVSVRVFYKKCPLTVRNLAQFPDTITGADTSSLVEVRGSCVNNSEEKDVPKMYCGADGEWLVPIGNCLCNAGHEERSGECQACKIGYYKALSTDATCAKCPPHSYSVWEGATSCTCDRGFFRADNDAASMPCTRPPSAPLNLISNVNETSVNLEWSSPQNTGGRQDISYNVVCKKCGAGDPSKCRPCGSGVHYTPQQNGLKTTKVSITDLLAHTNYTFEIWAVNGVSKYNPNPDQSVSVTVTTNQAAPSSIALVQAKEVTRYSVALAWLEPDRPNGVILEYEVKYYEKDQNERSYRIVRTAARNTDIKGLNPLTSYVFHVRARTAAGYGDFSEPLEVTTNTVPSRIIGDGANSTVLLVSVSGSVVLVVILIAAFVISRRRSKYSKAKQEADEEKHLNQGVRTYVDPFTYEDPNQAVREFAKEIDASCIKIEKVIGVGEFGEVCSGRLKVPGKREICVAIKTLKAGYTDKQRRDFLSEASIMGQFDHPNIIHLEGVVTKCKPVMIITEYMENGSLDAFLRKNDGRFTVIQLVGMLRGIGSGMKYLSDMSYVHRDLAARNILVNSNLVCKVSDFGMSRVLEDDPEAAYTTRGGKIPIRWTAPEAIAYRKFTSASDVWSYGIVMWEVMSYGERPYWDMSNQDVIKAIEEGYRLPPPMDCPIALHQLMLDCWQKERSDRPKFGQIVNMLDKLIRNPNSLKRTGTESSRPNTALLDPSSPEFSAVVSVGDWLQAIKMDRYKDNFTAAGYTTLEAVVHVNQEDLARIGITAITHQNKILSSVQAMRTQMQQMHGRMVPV
Test: Kinase Profiling Assay
Format: biochemical
Conditions: peptide 100 μM
Protocol: as §1, §2, §3

Compared with FAKLAARLYRKALARQLGVAA [MMI-0300], “HRRIKAWLKKIKALARQLGVAA (Mammal) [MMI-0500]” is lower in “% activity” value: 88% for the first, 48% for the second.

Going from KAFAKLAARLYRKALARQLGVAA [MMI-0400] to YARAAARQARAKALARQLGVAA [MMI-0100], the “% activity” value rises from 65% to 110%.

For “YARAAARQARAKALNRQLGVA (Mammal) [MMI-0200]”, the “% activity” value was 127%.

Molecular target: T2, MKK7β(h) (Homo sapiens, UniProt O14733)
T2 construct: purchased Millipore
T2 sequence (O14733 1-419): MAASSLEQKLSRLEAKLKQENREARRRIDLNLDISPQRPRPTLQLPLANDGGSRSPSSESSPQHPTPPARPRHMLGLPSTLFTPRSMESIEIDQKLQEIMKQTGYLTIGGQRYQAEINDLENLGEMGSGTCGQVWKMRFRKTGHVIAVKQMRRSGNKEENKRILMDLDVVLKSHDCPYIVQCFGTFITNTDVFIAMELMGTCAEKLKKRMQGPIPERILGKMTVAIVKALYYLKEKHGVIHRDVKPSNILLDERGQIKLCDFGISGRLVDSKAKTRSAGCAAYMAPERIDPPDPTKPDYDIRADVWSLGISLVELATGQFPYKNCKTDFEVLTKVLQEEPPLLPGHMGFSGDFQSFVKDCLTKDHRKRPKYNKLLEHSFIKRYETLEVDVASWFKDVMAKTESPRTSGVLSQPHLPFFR
Test: Kinase Profiling Assay
Format: biochemical
Conditions: peptide 100 μM
Protocol: as §1, §2, §3

Compared with FAKLAARLYRKALARQLGVAA [MMI-0300], KAFAKLAARLYRKALARQLGVAA [MMI-0400] is lower in “% activity” value: 100% for the first, 94% for the second.

For YARAAARQARAKALARQLGVAA [MMI-0100], the “% activity” value was 137%.

Molecular target: T3, Met(M1268T)(h) (Homo sapiens, UniProt P08581, M1250T)
T3 construct: purchased Millipore
Test: Kinase Profiling Assay
Format: biochemical
Conditions: peptide 100 μM
Protocol: as §1, §2, §3

First: FAKLAARLYRKALARQLGVAA [MMI-0300]
Second: HRRIKAWLKKIKALARQLGVAA (Mammal) [MMI-0500]
The “% activity” value of the first is higher: 255% for the first, 239% for the second.

Compared with KAFAKLAARLYRKALARQLGVAA [MMI-0400], “YARAAARQARAKALNRQLGVA (Mammal) [MMI-0200]” is lower in “% activity” value: 265% for the first, 143% for the second.

Molecular target: EGFR(T790M, L858R)(h) (Homo sapiens, UniProt P00533, L858R/T790M)
Test: Kinase Profiling Assay
Format: biochemical
Conditions: peptide 100 μM
Protocol: as §1, §2, §3

Compared with FAKLAARLYRKALARQLGVAA [MMI-0300], “HRRIKAWLKKIKALARQLGVAA (Mammal) [MMI-0500]” is lower in “% activity” value: 85% for the first, 53% for the second.

Compared with KAFAKLAARLYRKALARQLGVAA [MMI-0400], “YARAAARQARAKALNRQLGVA (Mammal) [MMI-0200]” is higher in “% activity” value: 78% for the first, 108% for the second.

Molecular target: BTK(R28H)(h) (Homo sapiens, UniProt Q06187, R28H)
Sequence (Q06187 whole entry R28H): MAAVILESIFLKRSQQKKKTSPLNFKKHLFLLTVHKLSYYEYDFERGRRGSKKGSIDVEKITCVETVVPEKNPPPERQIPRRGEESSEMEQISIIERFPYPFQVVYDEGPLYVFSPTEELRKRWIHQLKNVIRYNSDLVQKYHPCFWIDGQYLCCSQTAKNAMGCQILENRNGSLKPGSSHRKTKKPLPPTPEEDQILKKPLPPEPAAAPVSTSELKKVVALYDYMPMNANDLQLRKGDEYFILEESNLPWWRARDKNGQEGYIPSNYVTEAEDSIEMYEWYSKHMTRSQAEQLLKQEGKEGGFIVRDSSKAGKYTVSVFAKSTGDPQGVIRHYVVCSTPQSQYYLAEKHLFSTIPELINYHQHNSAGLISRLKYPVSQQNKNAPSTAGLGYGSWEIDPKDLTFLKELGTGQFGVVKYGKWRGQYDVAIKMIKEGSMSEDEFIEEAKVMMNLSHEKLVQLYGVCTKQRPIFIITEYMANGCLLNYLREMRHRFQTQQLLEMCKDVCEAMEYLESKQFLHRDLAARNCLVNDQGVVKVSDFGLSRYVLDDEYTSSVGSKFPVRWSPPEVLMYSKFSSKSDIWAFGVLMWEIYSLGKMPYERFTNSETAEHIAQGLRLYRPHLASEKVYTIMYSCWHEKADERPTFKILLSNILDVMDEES
Test: Kinase Profiling Assay
Format: biochemical
Conditions: peptide 100 μM
Protocol: as §1, §2, §3

First: FAKLAARLYRKALARQLGVAA [MMI-0300]
Second: HRRIKAWLKKIKALARQLGVAA (Mammal) [MMI-0500]
The “% activity” value of the first is higher: 74% for the first, 10% for the second.

First: KAFAKLAARLYRKALARQLGVAA [MMI-0400]
Second: YARAAARQARAKALARQLGVAA [MMI-0100]
The “% activity” value of the first is lower: 24% for the first, 91% for the second.

Molecular target: T4, Met(h) (Homo sapiens, UniProt P08581)
T4 construct: purchased Millipore
Test: Kinase Profiling Assay
Format: biochemical
Conditions: peptide 100 μM
Protocol: as §1, §2, §3

First: FAKLAARLYRKALARQLGVAA [MMI-0300]
Second: HRRIKAWLKKIKALARQLGVAA (Mammal) [MMI-0500]
The “% activity” value of the first is higher: 65% for the first, 27% for the second.

Compared with KAFAKLAARLYRKALARQLGVAA [MMI-0400], “YARAAARQARAKALNRQLGVA (Mammal) [MMI-0200]” is higher in “% activity” value: 62% for the first, 71% for the second.

Molecular target: T5, Mnk2(h) (Homo sapiens, UniProt Q9HBH9)
T5 construct: purchased Millipore
T5 sequence (Q9HBH9 whole entry): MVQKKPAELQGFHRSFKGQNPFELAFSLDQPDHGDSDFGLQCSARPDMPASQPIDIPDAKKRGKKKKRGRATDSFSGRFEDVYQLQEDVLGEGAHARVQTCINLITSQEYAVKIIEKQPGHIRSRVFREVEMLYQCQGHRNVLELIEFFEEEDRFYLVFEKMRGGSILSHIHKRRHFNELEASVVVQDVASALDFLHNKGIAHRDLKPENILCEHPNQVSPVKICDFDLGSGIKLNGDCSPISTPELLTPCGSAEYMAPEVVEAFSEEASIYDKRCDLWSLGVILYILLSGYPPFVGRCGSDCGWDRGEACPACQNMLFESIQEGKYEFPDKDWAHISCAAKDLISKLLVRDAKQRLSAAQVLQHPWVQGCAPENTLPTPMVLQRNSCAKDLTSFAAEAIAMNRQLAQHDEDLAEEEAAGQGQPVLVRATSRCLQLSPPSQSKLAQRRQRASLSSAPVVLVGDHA
Test: Kinase Profiling Assay
Format: biochemical
Conditions: peptide 100 μM
Protocol: as §1, §2, §3

Compared with FAKLAARLYRKALARQLGVAA [MMI-0300], “HRRIKAWLKKIKALARQLGVAA (Mammal) [MMI-0500]” is lower in “% activity” value: 89% for the first, 6% for the second.

In the case of KAFAKLAARLYRKALARQLGVAA [MMI-0400], the “% activity” value is reported as 86%.

Molecular target: CDK2/cyclinA(h) (Homo sapiens, UniProt P24941)
Test: Kinase Profiling Assay
Format: biochemical
Conditions: peptide 100 μM
Protocol: as §1, §2, §3

First: FAKLAARLYRKALARQLGVAA [MMI-0300]
Second: HRRIKAWLKKIKALARQLGVAA (Mammal) [MMI-0500]
The “% activity” value of the first is lower: 86% for the first, 87% for the second.

With KAFAKLAARLYRKALARQLGVAA [MMI-0400] the “% activity” value was 92%.

Molecular target: Flt3(h) (Homo sapiens, UniProt P36888)
Test: Kinase Profiling Assay
Format: biochemical
Conditions: peptide 100 μM
Protocol: as §1, §2, §3

First: FAKLAARLYRKALARQLGVAA [MMI-0300]
Second: HRRIKAWLKKIKALARQLGVAA (Mammal) [MMI-0500]
The “% activity” value of the first is higher: 84% for the first, 17% for the second.

First: KAFAKLAARLYRKALARQLGVAA [MMI-0400]
Second: YARAAARQARAKALNRQLGVA (Mammal) [MMI-0200]
The “% activity” value of the first is lower: 18% for the first, 99% for the second.

Molecular target: DAPK1(h) (Homo sapiens, UniProt P53355)
Sequence (P53355 whole entry): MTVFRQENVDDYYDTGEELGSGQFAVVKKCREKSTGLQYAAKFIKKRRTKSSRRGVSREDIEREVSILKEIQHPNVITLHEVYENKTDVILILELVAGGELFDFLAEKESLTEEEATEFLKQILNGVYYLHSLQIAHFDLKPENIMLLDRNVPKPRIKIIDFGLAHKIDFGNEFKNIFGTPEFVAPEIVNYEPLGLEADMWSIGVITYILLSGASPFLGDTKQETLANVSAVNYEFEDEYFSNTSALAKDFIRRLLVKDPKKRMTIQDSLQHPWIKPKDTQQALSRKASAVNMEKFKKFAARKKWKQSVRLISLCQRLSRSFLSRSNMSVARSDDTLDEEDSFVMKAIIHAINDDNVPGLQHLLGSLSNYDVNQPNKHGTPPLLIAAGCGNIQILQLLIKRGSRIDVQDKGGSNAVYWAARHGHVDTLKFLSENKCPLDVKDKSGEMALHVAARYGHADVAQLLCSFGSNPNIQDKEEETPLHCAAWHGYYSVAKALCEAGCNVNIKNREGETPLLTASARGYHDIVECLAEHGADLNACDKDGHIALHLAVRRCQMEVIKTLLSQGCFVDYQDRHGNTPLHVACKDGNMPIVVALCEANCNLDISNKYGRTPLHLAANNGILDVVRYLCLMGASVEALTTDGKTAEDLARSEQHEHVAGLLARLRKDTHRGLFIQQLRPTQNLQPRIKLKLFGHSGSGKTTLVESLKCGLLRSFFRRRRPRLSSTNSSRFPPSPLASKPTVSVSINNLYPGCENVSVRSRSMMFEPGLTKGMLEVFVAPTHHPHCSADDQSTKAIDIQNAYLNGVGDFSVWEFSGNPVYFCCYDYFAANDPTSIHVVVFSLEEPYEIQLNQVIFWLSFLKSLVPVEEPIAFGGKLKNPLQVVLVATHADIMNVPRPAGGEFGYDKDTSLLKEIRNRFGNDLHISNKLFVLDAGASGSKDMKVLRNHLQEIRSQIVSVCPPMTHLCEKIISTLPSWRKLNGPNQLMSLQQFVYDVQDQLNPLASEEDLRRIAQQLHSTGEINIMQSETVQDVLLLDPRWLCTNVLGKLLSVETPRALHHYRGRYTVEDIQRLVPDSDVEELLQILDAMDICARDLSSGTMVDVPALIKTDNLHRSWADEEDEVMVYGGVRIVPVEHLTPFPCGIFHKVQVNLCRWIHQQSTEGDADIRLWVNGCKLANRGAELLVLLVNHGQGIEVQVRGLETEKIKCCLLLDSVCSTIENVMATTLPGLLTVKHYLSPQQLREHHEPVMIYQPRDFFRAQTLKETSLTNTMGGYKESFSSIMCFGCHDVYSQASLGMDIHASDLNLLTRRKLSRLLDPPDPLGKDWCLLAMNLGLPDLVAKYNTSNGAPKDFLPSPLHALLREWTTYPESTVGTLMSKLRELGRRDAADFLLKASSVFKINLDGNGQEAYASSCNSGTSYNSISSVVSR
Test: Kinase Profiling Assay
Format: biochemical
Conditions: peptide 100 μM
Protocol: as §1, §2, §3

Compared with FAKLAARLYRKALARQLGVAA [MMI-0300], “HRRIKAWLKKIKALARQLGVAA (Mammal) [MMI-0500]” is lower in “% activity” value: 46% for the first, 0% for the second.

First: KAFAKLAARLYRKALARQLGVAA [MMI-0400]
Second: YARAAARQARAKALARQLGVAA [MMI-0100]
The “% activity” value of the first is lower: 36% for the first, 97% for the second.
